Reference: patent US20070071744A1

Key:
Assay in all cases: PepSpot peptide array
[1] = target: T1, peptide 117 (human)
T1 sequence (peptide, N-terminus acetylated): SFTNKVFTTETSR

[2] = target: T2, peptide 118 (human)
T2 sequence (peptide, N-terminus acetylated): TNKVFTTETSRSI

[3] = target: T3, peptide 7 (human)
T3 sequence (peptide, N-terminus acetylated): LCLGRVPAQSGPL

LU (Light Units) [1]: 472 LU
LU (Light Units) [2]: 336 LU
LU (Light Units) [3]: 292 LU
B1: monoclonal antibody hGP 5C4 (antibody, V domains shown)
VH: EVKLQESGGGLVQPGRSLKLSCTASGFTFSDYFMSWVRQAPTRGLEWVASISSGGASAYWRDSVKGRFTISRDNAKSALYLQMDSLRSEDTATYFCARGELDFDYWGQGVMVAVSS
VL: ADPNSTLLSASVGDRVTLNCTASQNVYKNLAWYQQKLGEAPRLLLYSANSQTGIPSRFSGSGSGPDFTLTISSLQPEDVASYFCQQYYSGNTFGAGTKLELKR
